B1: FcR9_F_Cys (FcR9_F with a cysteine tag added) (receptor)
chain: MGMRTEDLPKAEVILEPQWNRVLEKDSVTLKCRGAYSPEDNSTQWFHNESLISSQASSYLIDAATVDDSGEYRCQTSLSTLSDPVQLEVHIGWLLLQAPRWEFKEGDPIHLRCHSWKNTALHKVTYLQNGKGRKYFHHNSDFYIPKATLKDSGSYSCRGLFGSKNVSSETVNITITQGCRNDTCG
notes: also called FcR9_F-immobilized gel; FcR9_F column
B2: Fc-binding protein FcR9 (human FcγRIIIa amino acid substitution product) (receptor)
chain: KIEEAMGMRTEDLPKAEVILEPQWNRVLEKDSVTLKCRGAYSPEDNSTQWFHNESLISSQASSYLIDAATVDDSGEYRCQTSLSTLSDPVQLEVHIGWLLLQAPRWEFKEGDPIHLRCHSWKNTALHKVTYLQNGKGRKYFHHNSDFYIPKATLKDSGSYSCRGLVGSKNVSSETVNITITQGGHHHHHH

Legend:
[1] = target: T1, monoclonal antibody (RITUXAN, manufactured by Zenyaku Kogyo Co., Ltd.); test: affinity chromatography on the FcR9_F-immobilized gel column; equilibration 20 mM acetate, 50 mM NaCl, pH 5.0; elution by pH gradient to 10 mM glycine-HCl pH 3.0; 0.6 mL/min; A280
T1 construct: That tie rests on the trade name; also called rituximab
T1 sequence (heavy, as listed by the source, chain 1 of 2): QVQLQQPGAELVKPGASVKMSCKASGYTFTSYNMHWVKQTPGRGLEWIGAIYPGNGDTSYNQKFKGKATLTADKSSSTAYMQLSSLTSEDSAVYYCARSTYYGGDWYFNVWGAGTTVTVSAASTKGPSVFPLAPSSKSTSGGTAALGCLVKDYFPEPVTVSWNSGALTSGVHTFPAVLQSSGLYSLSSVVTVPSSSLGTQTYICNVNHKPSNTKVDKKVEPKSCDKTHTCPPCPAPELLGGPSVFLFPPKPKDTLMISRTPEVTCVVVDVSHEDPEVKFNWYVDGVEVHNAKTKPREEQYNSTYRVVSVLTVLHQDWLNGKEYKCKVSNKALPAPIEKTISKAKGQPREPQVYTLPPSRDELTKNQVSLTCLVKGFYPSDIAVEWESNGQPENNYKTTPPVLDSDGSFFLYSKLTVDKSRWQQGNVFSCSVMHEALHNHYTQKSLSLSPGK
T1 sequence (light, as listed by the source, chain 2 of 2): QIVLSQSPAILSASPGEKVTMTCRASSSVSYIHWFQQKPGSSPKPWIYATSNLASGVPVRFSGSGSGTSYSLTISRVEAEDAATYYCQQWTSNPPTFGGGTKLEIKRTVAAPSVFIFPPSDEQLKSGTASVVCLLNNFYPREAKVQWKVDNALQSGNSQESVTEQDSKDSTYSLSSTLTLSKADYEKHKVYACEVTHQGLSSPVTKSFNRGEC
Procedure: (4) Five microliters of a monoclonal antibody (RITUXAN, manufactured by Zenyaku Kogyo Co., Ltd.), which was diluted with phosphate buffered saline (PBS) (pH 7.4) to yield a concentration of 1.0 mg/mL, was added at a flow rate of 0.6 mL/min.
(5) Washing was performed with the equilibration buffer for 2 minutes while the flow rate was maintained at 0.6 mL/min. Subsequently, a monoclonal antibody adsorbed was eluted with a pH gradient of 10 mM glycine-HCl buffer (pH 3.0) (i.e., a gradient in which 10 mM glycine-HCl buffer (pH 3.0) accounts for 100% in 28 minutes).

[2] = target: T2, IgG1 (manufactured by Sigma-Aldrich); test: SPR (Biacore T100), Fc-binding protein amine-coupled to CM5, IgG1 as analyte
T2 construct: Analyte in the SPR assay, diluted in HBS-EP; also called IgG1 antibody
Procedure: (7) IgG1-binding ability of each Fc-binding protein collected as the elution fraction in (6) was evaluated using the surface plasmon resonance method. Upon measurement of the binding ability using the surface plasmon resonance method, Biacore T100 (manufactured by GE Healthcare) was used as a measurement system, Sensor Chip CM5 (manufactured by GE Healthcare) was used as a sensor chip, and Biacore T100 Evaluation Software (manufactured by GE Healthcare) was used as analysis software.
(8) A solution prepared by diluting IgG1 (manufactured by Sigma-Aldrich) with HBS-EP (manufactured by GE Healthcare) was supplied to a sensor chip on which each Fc-binding protein was separately immobilized using an Amine Coupling Kit (manufactured by GE Healthcare), thereby obtaining a sensorgram. Curve fitting was performed based on the sensorgram so as to calculate IgG1-binding ability.

Row | Binder | binding result [1] | Kd [2] [nM] | koff [2] [s⁻¹] | kon [2] [M⁻¹ s⁻¹]
1 | B1 | binds | – | – | –
2 | B2 | – | 77.3 | 0.0313 | 405000

— US20200223885A1 (TOSOH, published 2020)
